{
  "source": "patent US12291562B2",
  "about": "“Reagents and assays using modified integrin domains” (Rush University Medical Center, priority 2019, dated 2025)",
  "molecules": {"B1": {"name": "Clone 5: scFv phage clone, VL-Linker-VH, SEQ ID NO: 63 (protein)", "scFv": "SSELTQDPAVSVALGQTVRITCQGDSLRSYYASWYQQKPGQAPVLVIYGKNNRPSGIPDRFSGSTSGNFASLTITGAQAEDGADYYCHSRDSSGNHLVFGGGTKLTVLGEGKSSGSGSESKASEVQLVQSGAEVKKPGESLKISCKGSGYSFTSYWIGWVRQMPGKGLEWMGIIYPGDSDTRYSPSFQGQVTISADKSISTAYLQWSSLKASDTAMYYCARRARGAFDIWGQGTLVTVSS", "modifications": "Clone 5"}, "B2": {"name": "Clone 11: scFv phage clone, VH-linker-VK, SEQ ID NO: 65 (protein)", "scFv": "EVQLVESGGGVVQPGRSLRLSCAATGFTFSNYGIHWVRQAPGKGLEWVAVTSYDGSNKYYADSVKGRFTISRDNSKNTLYLQMNSLRVEDTAVYYCAKDRGYYTYVFDYWGRGTLVTVSSGEGKSSGSGSESKASDVVMTQTPLSLPVTPGEPAAISCRSSQSLLHSNGYNYLDWYLQKPGQSPQLLIYLGSNRASGVPDRFSGSGSGTDFTLKISRVEAEDVGVYYCMQAVQTVD", "modifications": "Clone 11"}, "B3": {"name": "Clone 6: scFv phage clone, VL-linker-VH, SEQ ID NO: 64 (protein)", "scFv": "QSVLTQPPSASGTPGQRVTISCSGSSSNIGSNYVSWYQQLPGTAPKLLIYDNNKRPSGIPDRFSGSKSGTSATLGITGLQTGDEADYYCGTWDSSLSALYVFGAGTKLTVLGEGKSSGSGSESKASQVQLQESGPGLVKPSETLSLTCSVSGGSTSSYYWSWIRQPPGKGLEWIGYISNSGSTNYNPSLKSRVTMSIDTSNNQFSLKLSSVTAADTAVYYCASHLGATWRWGQGTLVTVSS", "modifications": "Clone 6"}, "B4": {"name": "Clone 14: scFv phage clone, VK-Linker-VH, SEQ ID NO: 67 (protein)", "scFv": "DVVMTQSPLSLPATLGQPASISCRSSQSLVYTDGNTYLNWFQQRPGQSPRRLIYKVSNRDSGVPDRFSGSGSGTHFTLKISRVEAEDVGVYYCMQGTHWPPTFGQGTKVEIKEGKSSGSGSESKASEVQLVQSGAEVKKPGASVKVSCKASGGTFSSYAISWVRQAPGQGLEWMGGIIPIFGTANYAQKFQGRVTITADESTSTAYMELSSLRSEDTAVYYCASSGVDYWGQGTLVTVSS", "modifications": "Clone 14"}, "B5": {"name": "Clone 13: phage clone, VH only, SEQ ID NO: 66 (antibody, V domains shown)", "VH": "EVQLLESGGGLVQPGGSLRLSCAASGFTFSSDLMSWVRQAPGKGLEWVSAISGSGGSTYYADSVKGRFTISRDNSKNTLYLQMNSLRAEDTAVYYCAKNEVIFDYWGQGTLVTVSSASTKGLSMFDYWGQGTKVEIK", "modifications": "Clone 13"}, "B6": {"name": "Clone 8: clone from naïve human scFv phage display library enriched on BZ348014 (Table 5); not the VHH clone 8 (protein)", "scFv": "DVQLVESGGGLVQPGGSLRLSCTASGFTFSNYAMNWVRQAPGKGLEWVSVISSSGSRRNYADSVKGRFTISRDNAKSTLYLQMNSLKPEDTAVYYCAKVRDAGYYRWNLNDLDYRGQGTQVTVSS", "modifications": "Clone 8"}},
  "data": [
    {"system": "not listed separately", "test": "Phage ELISA on blocked well", "type": "binding", "conditions": "Table 5, scFv phage diluted 1:5", "experimental": "(§1) After 2 rounds of enrichment against the primary target, positive binders were identified by phage ELISA and analyzed by restriction mapping & sequencing for identification of unique clones. Small scale phage growths were diluted 1:5 in TBS+casein. Nunc Maxi-Sorp strip wells were coated at ˜5 μg/ml of each test protein overnight at 4° C. and blocked with TBS+casein. The diluted phage were applied and allowed to bind for 1 hour with shaking. The wells were washed 4 times with TBS+0.05% Tween20 and twice with TBS. Bound phage were detected by incubation for 1 hour with anti-M13-HRP and after washing as above, developed with TMB. Absorbance at 450 nm was read after acidification of the wells.", "values": [
      {"molecule": "B1", "ELISA absorbance at 450 nM, Blocked well": 0.045},
      {"molecule": "B2", "ELISA absorbance at 450 nM, Blocked well": 0.043},
      {"molecule": "B3", "ELISA absorbance at 450 nM, Blocked well": 0.041},
      {"molecule": "B4", "ELISA absorbance at 450 nM, Blocked well": 0.044},
      {"molecule": "B5", "ELISA absorbance at 450 nM, Blocked well": 0.043},
      {"molecule": "B6", "ELISA absorbance at 450 nM, Blocked well": 0.047}
    ]},
    {"biological_target": "T1, BZ348014 (CD11b A-domain CD11bA-D242A/F275S/F302G) (Homo sapiens, UniProt P11215, D258A/F291S/F318G)", "T1 construct": "MGS-8XHis-SG (N); TEV site (ENLYFQ) followed by GS linker (N); made in house; host or cells: E. coli BL21DE3 (pET-11d)", "T1 sequence (P11215 148-337 D258A/F291S/F318G)": "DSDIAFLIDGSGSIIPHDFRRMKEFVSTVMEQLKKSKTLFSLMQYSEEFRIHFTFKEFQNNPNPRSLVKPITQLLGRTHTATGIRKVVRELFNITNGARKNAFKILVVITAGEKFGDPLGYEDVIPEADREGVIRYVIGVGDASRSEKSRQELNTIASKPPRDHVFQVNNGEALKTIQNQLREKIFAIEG", "test": "Phage ELISA on BZ348014", "type": "binding", "conditions": "Table 5; scFv phage diluted 1:5; after 2 rounds of enrichment", "source_text": "A naïve human scFv phage display library and VHH phage display library were screened against several integrin targets of interest. The screen involved phage ELISA followed by sequencing.\nExample experiment: A diverse naïve human scFv phage display library (Neoclone, LLC, Madison, WI) was enriched on BZ348014.\nas §1", "values": [
      {"molecule": "B2", "ELISA absorbance at 450 nM, BZ348014": 0.628},
      {"molecule": "B6", "ELISA absorbance at 450 nM, BZ348014": 0.060}
    ]},
    {"system": "CD11b A-domain polypeptides", "test": "Conformation selectivity in counterscreen and dilution series ELISA", "type": "binding, human", "conditions": "conclusion from ELISA data", "experimental": "as §1\nHigh binding clones were included in a counterscreen ELISA against other CD11b A-domain polypetides which produced the following data:\nTo confirm binding, a dilution series experiment was carried out. Select clones were subjected to a dilution series which generated the following data: […]", "values": [
      {"molecule": "B1", "Selectivity of binding to CD11b A-domain polypeptides mutationally stabilized in active conformation over the other conformations": "limited or no selectivity"},
      {"molecule": "B3", "Selectivity of binding to CD11b A-domain polypeptides mutationally stabilized in active conformation over the other conformations": "bound selectively"},
      {"molecule": "B4", "Selectivity of binding to CD11b A-domain polypeptides mutationally stabilized in active conformation over the other conformations": "bound selectively"},
      {"molecule": "B5", "Selectivity of binding to CD11b A-domain polypeptides mutationally stabilized in active conformation over the other conformations": "bound selectively"}
    ]},
    {"biological_target": "T2, BZ348014 antigen (Homo sapiens, UniProt P11215, D258A/F291S/F318G)", "T2 construct": "MGS-8XHis-SG (N); TEV site (ENLYFQ) followed by GS linker (N); made in house; host or cells: E. coli BL21DE3 (pET-11d)", "T2 sequence (P11215 148-337 D258A/F291S/F318G)": "as above", "test": "VHH phage display library screening", "type": "binding", "conditions": "not given", "experimental": "A panning and enrichment of the BZ348014 antigen against a VHH phage display library (Neoclone, LLC, Madison, WI) was also conducted in an identical manner to the human scFv phage display library screen. One unique binder was identified, clone 8.", "values": [
      {"molecule": "B6", "Binder identified by panning and enrichment against BZ348014 antigen": "unique binder"}
    ]}
  ]
}
